For experiment [1], the target named is T1, CRMP-2 (Mus musculus, UniProt O08553).
T1 construct: overlaid with wild-type mouse brain lysate in NF1 solubilization buffer; from tissue; host or cells: wild-type mouse brain lysate
The experiment in a line: SPOTS blot of neurofibromin C-terminus peptides overlaid with mouse brain lysate, probed with CRMP-2 antibodies. Conditions: 15-mers, three CRMP-2 antibodies, FIG. 4. The experiment is classed as binding. The method, then:
FIG. 4 presents plot of mean binding of CRMP-2 to neurofibromin versus peptide blot position. Neurofibromin peptides (15-mers) were spotted onto a SPOTS blot membrane from amino acids 2260-2818 of […], a region where neurofibromin has been reported to bind CRMP-2. The blots were blocked, then overlaid with wild-type mouse brain lysate in NF1 solubilization buffer, washed briefly, then incubated with poly CRMP-2 (Sigma) or mono CRMP-2+poly CRMP-2 phospho Ser522 and Ser555 antibodies. The blots were scanned (Licor) and the spot intensity normalized to the maximum intensity in each series. The normalized data was then averaged and the mean+/−SEM is shown in the graph above (n=3).
Referring now to FIG. 4, peptides encompassing the C-terminus of neurofibromin were spotted with CRMP-2 and the resulting blot was probed with three different CRMP-2 antibodies. […] These peptides are: SEQ ID NO: 1, RVSHGQIKQIIRILS; SEQ ID NO: 2, KGYRHPSPAIVARTV, and SEQ ID NO: 3, YLQSFGFNGLWRFAG. In order to facilitate their entry into cells, each peptide may be fused to a portion of the cell-membrane transduction domain of the human immunodeficiency virus-type 1 (HIV-1) transactivator of transcription (TAT) protein (SEQ ID NO: 4 and/or SEQ ID NO: 6).

Experiment [2] deals with T2, CaV2.2 (Homo sapiens, UniProt Q00975).
T2 construct: expressed in transfected cells; host or cells: HEK293 cells expressing CaV2.2
T2 sequence (Q00975 whole entry): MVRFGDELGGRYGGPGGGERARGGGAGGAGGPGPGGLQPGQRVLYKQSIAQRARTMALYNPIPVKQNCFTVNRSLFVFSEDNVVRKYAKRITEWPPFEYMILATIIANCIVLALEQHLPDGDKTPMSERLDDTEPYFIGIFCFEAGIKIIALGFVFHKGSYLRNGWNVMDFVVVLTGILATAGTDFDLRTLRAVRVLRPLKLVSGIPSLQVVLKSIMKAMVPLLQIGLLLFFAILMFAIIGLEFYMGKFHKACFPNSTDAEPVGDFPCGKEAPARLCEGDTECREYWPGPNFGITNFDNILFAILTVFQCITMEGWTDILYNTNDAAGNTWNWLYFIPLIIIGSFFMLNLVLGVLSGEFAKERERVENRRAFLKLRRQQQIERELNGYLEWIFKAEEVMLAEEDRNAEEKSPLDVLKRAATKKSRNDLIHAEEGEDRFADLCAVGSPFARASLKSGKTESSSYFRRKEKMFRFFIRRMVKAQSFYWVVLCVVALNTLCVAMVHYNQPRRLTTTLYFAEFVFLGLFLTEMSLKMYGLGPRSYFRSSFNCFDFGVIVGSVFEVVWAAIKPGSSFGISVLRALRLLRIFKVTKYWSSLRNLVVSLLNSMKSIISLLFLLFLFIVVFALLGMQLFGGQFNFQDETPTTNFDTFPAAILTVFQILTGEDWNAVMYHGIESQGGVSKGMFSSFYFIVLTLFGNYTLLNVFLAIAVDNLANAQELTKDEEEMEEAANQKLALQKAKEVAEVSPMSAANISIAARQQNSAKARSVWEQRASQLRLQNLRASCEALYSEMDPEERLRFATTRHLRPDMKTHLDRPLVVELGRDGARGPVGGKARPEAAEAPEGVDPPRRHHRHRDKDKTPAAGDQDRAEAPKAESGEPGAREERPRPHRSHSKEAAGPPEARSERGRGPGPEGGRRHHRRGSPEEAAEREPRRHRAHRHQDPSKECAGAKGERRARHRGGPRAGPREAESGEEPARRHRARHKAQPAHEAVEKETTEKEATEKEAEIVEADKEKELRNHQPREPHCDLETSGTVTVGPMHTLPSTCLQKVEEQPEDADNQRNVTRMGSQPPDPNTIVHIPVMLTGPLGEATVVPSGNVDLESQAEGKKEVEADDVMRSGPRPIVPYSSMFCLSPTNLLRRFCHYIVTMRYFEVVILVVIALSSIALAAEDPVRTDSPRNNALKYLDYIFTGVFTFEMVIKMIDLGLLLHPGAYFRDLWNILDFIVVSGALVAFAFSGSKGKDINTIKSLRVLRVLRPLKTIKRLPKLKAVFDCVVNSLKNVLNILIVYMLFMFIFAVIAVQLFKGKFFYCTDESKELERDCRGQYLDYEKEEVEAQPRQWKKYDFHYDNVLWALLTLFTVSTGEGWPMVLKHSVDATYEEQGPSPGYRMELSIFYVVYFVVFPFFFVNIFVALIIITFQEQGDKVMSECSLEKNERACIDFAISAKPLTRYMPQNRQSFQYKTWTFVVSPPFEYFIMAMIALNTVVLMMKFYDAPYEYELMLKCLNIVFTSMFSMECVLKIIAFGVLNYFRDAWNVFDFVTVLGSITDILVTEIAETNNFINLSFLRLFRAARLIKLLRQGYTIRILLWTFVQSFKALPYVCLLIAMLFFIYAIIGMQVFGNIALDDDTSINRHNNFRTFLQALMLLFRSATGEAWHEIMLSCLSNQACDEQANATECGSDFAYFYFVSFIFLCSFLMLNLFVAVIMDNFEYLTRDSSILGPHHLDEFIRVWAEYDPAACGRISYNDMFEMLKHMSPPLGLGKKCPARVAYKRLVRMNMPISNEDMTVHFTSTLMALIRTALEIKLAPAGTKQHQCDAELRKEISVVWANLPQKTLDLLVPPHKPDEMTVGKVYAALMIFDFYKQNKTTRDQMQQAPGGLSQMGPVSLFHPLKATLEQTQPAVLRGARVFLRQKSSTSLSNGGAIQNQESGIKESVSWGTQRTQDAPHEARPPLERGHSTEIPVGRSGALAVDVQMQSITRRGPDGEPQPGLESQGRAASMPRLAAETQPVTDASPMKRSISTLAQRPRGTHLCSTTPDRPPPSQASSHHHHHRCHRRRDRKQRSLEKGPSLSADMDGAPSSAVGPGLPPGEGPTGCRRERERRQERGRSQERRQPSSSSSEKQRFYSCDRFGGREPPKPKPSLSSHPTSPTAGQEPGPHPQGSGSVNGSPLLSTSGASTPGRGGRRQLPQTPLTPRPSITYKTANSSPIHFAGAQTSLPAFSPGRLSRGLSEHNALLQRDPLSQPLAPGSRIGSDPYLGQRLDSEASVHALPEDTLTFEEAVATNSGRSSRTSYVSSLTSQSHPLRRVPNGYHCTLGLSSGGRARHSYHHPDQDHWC
The experiment in a line: CaV2.2 surface staining in transfected HEK293 cells expressing CaV2.2. Conditions: HEK293 cells expressing CaV2.2, transiently transfected with EGFP-fused plasmids. In kind it is cell-based. The protocol:
(§1) Recently, it was shown that CRMP-2 facilitates CaV2.2 membrane trafficking in hippocampal and sensory neurons (12, 13), the hypothesis that the CBD3 peptide would act in a dominant negative manner to inhibit this CRMP-2 mediated trafficking was tested. Plasmids containing full-length CRMP-2 or the CBD3 peptide fused to enhanced green fluorescent protein (EGFP) were transiently transfected into human embryonic kidney 293 (HEK293) cells expressing CaV2.2. […] Since CBD3 peptide expression was sufficient in preventing forward trafficking of CaV2.2, it is possible that this would result in loss of currents via these channels. To test this, neurons were transfected with full-length CRMP-2 or CBD3 peptide and measured CaV2.2 currents 2 days post-transfection using whole-cell voltage clamp electrophysiology. Expression of CBD3 reduced peak Ca^2+ current density by ˜64% compared to CRMP-2 neurons (FIGS. 2C and 2D).

Experiment [3] concerns CaV2.2. The experiment in a line: CaV2.2 currents in transfected neurons by whole-cell voltage clamp electrophysiology. In kind it is cell-based. Conditions: compared to CRMP-2 neurons; 2 days post-transfection. The protocol: as §1

The source of these data is patent publication US20180117114A1, “PEPTIDES THAT MODULATE THE EFFECT OF THE CRMP: NEUROFIBROMIN COMPLEX ON SYNAPTIC TRANSMISSION” (Indiana University Research and Technology Coporation, priority 2015, published 2018).

Take “YLQSFGFNGLWRFAG [SEQ ID NO: 3, a peptide encompassing a portion of the C-terminus of neurofibromin]”: the “CRMP-2 binding to neurofibromin peptides (normalized spot intensity)” value (“CRMP-2 binding … (normalized spot intensity)” below) in experiment [1] is listed as “peaks”.

Consider “KGYRHPSPAIVARTV [SEQ ID NO: 2, a peptide encompassing a portion of the C-terminus of neurofibromin]”, for which the “CRMP-2 binding … (normalized spot intensity)” value in experiment [1] is recorded as “peaks”.

As to “DFVYKRIKARSRLAE [CBD3 peptide, a peptide derived from a portion of the CBD3 region; expressed fused to EGFP in b74]”, the “cells exhibiting CaV2.2 surface staining” value in experiment [2] is reported as roughly 10%. Moreover, the “reduction of peak Ca^2+ current density” value in experiment [3] was roughly 64%.

For the sequence “RVSHGQIKQIIRILS [SEQ ID NO: 1, a peptide encompassing a portion of the C-terminus of neurofibromin]”, the “CRMP-2 binding … (normalized spot intensity)” value in experiment [1] is given as “peaks”.
